Blank lines part the entries; values can stand above or below the substance they belong to.
What was measured:
[1] = molecular target: soluble full-length APP (sAPPf) (human (endogenous in CSF)) (UniProt P05067); assay: co-IP + ELISA; CSF of AD and NDC subjects measured by sandwich ELISA (IBL sAPPα, IBL sAPPβ, or Novex kit that detects sAPPf and sAPPα) before and after immunoprecipitation with Sigma-Ct or IBL-β; read-out is the loss from the sample
[2] = molecular target: APP solubilized from human brain membranes (human (endogenous in brain frontal cortex)) (UniProt P05067); assay: native gel or EMSA; blue native-PAGE, NativePAGE Novex 4-16% Bis-Tris gels, samples with G-250 additive and dodecylmaltoside; brain membrane extracts and CSF; immunoblot with anti-APP antibodies
[3] = molecular target: APP solubilized from human brain membranes (human (endogenous in brain frontal cortex)) (UniProt P05067); assay: sucrose density gradient ultracentrifugation; continuous 5-20% sucrose gradient, 0.15 M NaCl, 50 mM MgCl2, 0.5% Brij 97, 50 mM Tris-HCl pH 7.4; 250,000 x g, 4 hr, 4°C; fractions immunoblotted; markers β-galactosidase, catalase, alkaline phosphatase
[4] = molecular target: sAPPβ (sAPP fragment generated after β-secretase cleavage) (human (endogenous in CSF)); assay: co-IP + ELISA; CSF of AD and NDC subjects measured by sandwich ELISA (IBL sAPPα, IBL sAPPβ, or Novex kit that detects sAPPf and sAPPα) before and after immunoprecipitation with Sigma-Ct or IBL-β; read-out is the loss from the sample

- percent decrease of the ELISA level after immunoprecipitation of sAPPf (Sigma-Ct) [1]: 27%
Substance: sAPPβ (sAPP fragment generated after β-secretase cleavage) (domain or fragment)

- percent decrease of the ELISA level after immunoprecipitation of sAPPf (Sigma-Ct) [1]: 33%
Substance: sAPPα (sAPP fragment generated after α-secretase cleavage) (domain or fragment)

Substance: APP solubilized from human brain membranes (from UniProt P05067 18-770) (natural protein)
- stoichiometry N [2]: 2
- stoichiometry N [3]: 2

- percent decrease of the ELISA level of sAPPf plus sAPPα after immunoprecipitation of sAPPβ (IBL-β) [4]: 89%
Substance: soluble full-length APP (sAPPf) (from UniProt P05067 18-770) (natural protein)
